Test results published in patent publication US20250340902A1, “GENE THERAPY FOR BVES-RELATED DISORDERS” (OHIO STATE INNOVATION FOUNDATION, priority 2022, published 2025).

How the values were obtained:
[1] = molecular target: 26S proteasome non-ATPase regulatory subunit 7 (Mus musculus) (UniProt P26516); assay: anti-HA co-IP from muscle, MS; CTRL 0
[2] = molecular target: ATP-sensitive inward rectifier potassium channel 11 (Mus musculus) (UniProt Q61743); assay: anti-HA co-IP from muscle, MS; CTRL 0
[3] = molecular target: Alanine--tRNA ligase, cytoplasmic (Mus musculus) (UniProt Q8BGQ7); assay: anti-HA co-IP from muscle, MS; CTRL 0
[4] = molecular target: Ankyrin-2 (Mus musculus) (UniProt Q8C8R3); assay: anti-HA co-IP from muscle, MS; CTRL 0
[5] = molecular target: BAG family molecular chaperone regulator 2 (Mus musculus) (UniProt Q91YN9); assay: anti-HA co-IP from muscle, MS; CTRL 0
[6] = molecular target: C-1-tetrahydrofolate synthase, cytoplasmic (Mus musculus) (UniProt Q922D8); assay: anti-HA co-IP from muscle, MS; CTRL 0
[7] = molecular target: Chloride channel protein 1 (Mus musculus) (UniProt Q64347); assay: anti-HA co-IP from muscle, MS; CTRL 0
[8] = molecular target: Chromatin-remodeling ATPase INO80 (Mus musculus) (UniProt Q6ZPV2); assay: anti-HA co-IP from muscle, MS; CTRL 0
[9] = molecular target: Coatomer subunit delta (Mus musculus) (UniProt Q5XJY5); assay: anti-HA co-IP from muscle, MS; CTRL 0
[10] = molecular target: Cullin-1 (Mus musculus) (UniProt Q9WTX6); assay: anti-HA co-IP from muscle, MS; CTRL 0
[11] = molecular target: Dystrobrevin alpha (Mus musculus) (UniProt Q9D2N4); assay: anti-HA co-IP from muscle, MS; CTRL 0
[12] = molecular target: Emerin (Mus musculus) (UniProt O08579); assay: anti-HA co-IP from muscle, MS; CTRL 0
[13] = molecular target: Endoplasmic reticulum transmembrane helix translocase (Mus musculus) (UniProt Q9EPE9); assay: anti-HA co-IP from muscle, MS; CTRL 0
[14] = molecular target: Eukaryotic initiation factor 4A-III (Mus musculus) (UniProt Q91VC3); assay: anti-HA co-IP from muscle, MS; CTRL 0
[15] = molecular target: Exosome complex exonuclease RRP44 (Mus musculus) (UniProt Q9CSH3); assay: anti-HA co-IP from muscle, MS; CTRL 0
[16] = molecular target: F-box only protein 40 (Mus musculus) (UniProt P62932); assay: anti-HA co-IP from muscle, MS; CTRL 0
[17] = molecular target: Gamma-sarcoglycan (Mus musculus) (UniProt P82348); assay: anti-HA co-IP from muscle, MS; CTRL 0
[18] = molecular target: Glutamine amidotransferase-like class 1 domain-containing protein 3A, mitochondrial (Mus musculus) (UniProt Q9D172); assay: anti-HA co-IP from muscle, MS; CTRL 0
[19] = molecular target: Indolethylamine N-methyltransferase (Mus musculus) (UniProt P40936); assay: anti-HA co-IP from muscle, MS; CTRL 0
[20] = molecular target: Mannose-binding protein C (Mus musculus) (UniProt P41317); assay: anti-HA co-IP from muscle, MS; CTRL 0
[21] = molecular target: NEDD8-conjugating enzyme Ubc12 (Mus musculus) (UniProt P61082); assay: anti-HA co-IP from muscle, MS; CTRL 0
[22] = molecular target: Nesprin-2 (Mus musculus) (UniProt Q6ZWQ0); assay: anti-HA co-IP from muscle, MS; CTRL 0
[23] = molecular target: Nucleolar protein 12 (Mus musculus) (UniProt Q8BG17); assay: anti-HA co-IP from muscle, MS; CTRL 0
[24] = molecular target: Phosphatidylinositol 5-phosphate 4-kinase type-2 beta (Mus musculus) (UniProt Q80XI4); assay: anti-HA co-IP from muscle, MS; CTRL 0
[25] = molecular target: Plasma membrane calcium-transporting ATPase 1 (Mus musculus) (UniProt G5E829); assay: anti-HA co-IP from muscle, MS; CTRL 0
[26] = molecular target: Platelet glycoprotein 4 (Mus musculus) (UniProt Q08857); assay: anti-HA co-IP from muscle, MS; CTRL 0
[27] = molecular target: Protein phosphatase 1 regulatory subunit 3A (Mus musculus) (UniProt Q99MR9); assay: anti-HA co-IP from muscle, MS; CTRL 0
[28] = molecular target: SUN domain-containing protein 2 (Mus musculus) (UniProt Q8BJS4); assay: anti-HA co-IP from muscle, MS; CTRL 0
[29] = molecular target: Sodium channel protein type 4 subunit alpha (Mus musculus) (UniProt Q9ER60); assay: anti-HA co-IP from muscle, MS; CTRL 0
[30] = molecular target: Sorting and assembly machinery component 50 homolog (Mus musculus) (UniProt Q8BGH2); assay: anti-HA co-IP from muscle, MS; CTRL 0
[31] = molecular target: Sulfide:quinone oxidoreductase, mitochondrial (Mus musculus) (UniProt Q9R112); assay: anti-HA co-IP from muscle, MS; CTRL 0
[32] = molecular target: Tetraspanin-8 (Mus musculus) (UniProt Q8R3G9); assay: anti-HA co-IP from muscle, MS; CTRL 0
[33] = molecular target: Tubulin alpha-1B chain (Mus musculus) (UniProt P05213); assay: anti-HA co-IP from muscle, MS; CTRL 0
[34] = molecular target: U1 small nuclear ribonucleoprotein 70 kDa (Mus musculus) (UniProt Q62376); assay: anti-HA co-IP from muscle, MS; CTRL 0
[35] = molecular target: U2 small nuclear ribonucleoprotein B″ (Mus musculus) (UniProt Q9CQI7); assay: anti-HA co-IP from muscle, MS; CTRL 0
[36] = molecular target: Carnitine O-palmitoyltransferase 1, muscle isoform (Mus musculus) (UniProt Q924X2); assay: anti-HA co-IP from muscle, MS; CTRL 4
[37] = molecular target: MICOS complex subunit Mic60 (Mus musculus) (UniProt Q8CAQ8); assay: anti-HA co-IP from muscle, MS; CTRL 4
[38] = molecular target: Phosphorylase b kinase regulatory subunit beta (Mus musculus) (UniProt Q7TSH2); assay: anti-HA co-IP from muscle, MS; CTRL 4
[39] = molecular target: Trifunctional enzyme subunit beta, mitochondrial (Mus musculus) (UniProt Q99JY0); assay: anti-HA co-IP from muscle, MS; CTRL 4

Sequence of Sodium channel protein type 4 subunit alpha (Mus musculus) (Q9ER60 whole entry): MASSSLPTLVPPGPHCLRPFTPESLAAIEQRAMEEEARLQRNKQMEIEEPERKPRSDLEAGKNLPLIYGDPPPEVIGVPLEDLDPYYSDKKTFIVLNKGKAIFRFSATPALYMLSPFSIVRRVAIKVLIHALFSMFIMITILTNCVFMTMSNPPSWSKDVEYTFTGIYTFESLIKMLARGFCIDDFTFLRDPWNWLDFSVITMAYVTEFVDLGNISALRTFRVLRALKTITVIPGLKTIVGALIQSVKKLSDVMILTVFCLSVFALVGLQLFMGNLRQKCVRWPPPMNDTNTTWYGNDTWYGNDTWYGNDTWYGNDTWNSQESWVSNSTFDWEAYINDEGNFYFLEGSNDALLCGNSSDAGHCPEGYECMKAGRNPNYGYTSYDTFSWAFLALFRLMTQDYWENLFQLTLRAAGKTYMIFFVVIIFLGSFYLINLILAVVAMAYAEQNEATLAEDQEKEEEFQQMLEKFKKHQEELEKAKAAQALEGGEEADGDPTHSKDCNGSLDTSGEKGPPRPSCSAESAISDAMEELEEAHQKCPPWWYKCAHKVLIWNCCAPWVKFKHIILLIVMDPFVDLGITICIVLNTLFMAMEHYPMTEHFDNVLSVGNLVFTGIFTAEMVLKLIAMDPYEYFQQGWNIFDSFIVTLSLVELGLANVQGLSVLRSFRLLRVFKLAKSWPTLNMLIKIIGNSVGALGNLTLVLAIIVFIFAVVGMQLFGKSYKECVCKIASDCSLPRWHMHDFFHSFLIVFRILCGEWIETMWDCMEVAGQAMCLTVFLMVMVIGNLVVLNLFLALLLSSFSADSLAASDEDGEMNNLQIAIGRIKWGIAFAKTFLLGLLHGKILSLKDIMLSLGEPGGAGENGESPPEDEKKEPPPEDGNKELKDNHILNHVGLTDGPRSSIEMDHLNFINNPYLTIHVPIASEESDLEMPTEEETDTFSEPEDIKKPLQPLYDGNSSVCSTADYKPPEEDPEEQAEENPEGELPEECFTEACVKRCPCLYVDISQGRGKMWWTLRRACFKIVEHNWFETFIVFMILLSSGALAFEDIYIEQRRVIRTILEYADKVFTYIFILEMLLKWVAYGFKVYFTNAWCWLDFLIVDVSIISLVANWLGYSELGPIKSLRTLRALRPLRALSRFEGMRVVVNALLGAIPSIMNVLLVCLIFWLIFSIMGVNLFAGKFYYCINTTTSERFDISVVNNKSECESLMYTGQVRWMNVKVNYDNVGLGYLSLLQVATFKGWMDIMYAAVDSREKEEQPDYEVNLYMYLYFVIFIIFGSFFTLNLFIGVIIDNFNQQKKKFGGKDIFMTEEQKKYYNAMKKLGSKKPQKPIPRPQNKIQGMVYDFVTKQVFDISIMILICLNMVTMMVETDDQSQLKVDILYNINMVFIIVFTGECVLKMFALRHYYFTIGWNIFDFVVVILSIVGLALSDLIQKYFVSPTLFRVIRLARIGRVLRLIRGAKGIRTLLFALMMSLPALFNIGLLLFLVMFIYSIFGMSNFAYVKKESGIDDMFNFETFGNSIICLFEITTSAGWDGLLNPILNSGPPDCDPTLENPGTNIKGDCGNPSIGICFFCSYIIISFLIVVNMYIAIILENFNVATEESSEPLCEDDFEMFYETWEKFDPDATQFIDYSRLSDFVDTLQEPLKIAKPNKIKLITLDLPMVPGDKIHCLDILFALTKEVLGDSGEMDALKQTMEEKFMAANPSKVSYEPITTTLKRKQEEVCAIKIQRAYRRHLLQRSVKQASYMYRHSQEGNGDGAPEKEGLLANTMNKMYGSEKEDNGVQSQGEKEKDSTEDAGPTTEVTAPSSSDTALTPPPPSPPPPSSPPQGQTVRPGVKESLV
Sequence of U1 small nuclear ribonucleoprotein 70 kDa (Mus musculus) (Q62376 2-448 limits assumed): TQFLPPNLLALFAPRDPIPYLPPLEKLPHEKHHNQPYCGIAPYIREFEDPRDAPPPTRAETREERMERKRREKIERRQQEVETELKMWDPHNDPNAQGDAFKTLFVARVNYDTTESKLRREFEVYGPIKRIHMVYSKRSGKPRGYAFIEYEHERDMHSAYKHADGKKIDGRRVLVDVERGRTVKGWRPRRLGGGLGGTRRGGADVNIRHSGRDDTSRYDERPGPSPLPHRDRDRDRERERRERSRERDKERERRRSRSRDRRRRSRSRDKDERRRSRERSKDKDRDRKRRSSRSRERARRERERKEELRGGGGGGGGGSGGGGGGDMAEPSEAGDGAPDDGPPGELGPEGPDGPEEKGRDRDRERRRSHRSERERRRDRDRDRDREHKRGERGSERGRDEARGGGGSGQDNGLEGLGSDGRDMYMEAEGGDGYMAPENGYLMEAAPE
Sequence of MICOS complex subunit Mic60 (Mus musculus) (Q8CAQ8 34-757 limits assumed, one chain of several): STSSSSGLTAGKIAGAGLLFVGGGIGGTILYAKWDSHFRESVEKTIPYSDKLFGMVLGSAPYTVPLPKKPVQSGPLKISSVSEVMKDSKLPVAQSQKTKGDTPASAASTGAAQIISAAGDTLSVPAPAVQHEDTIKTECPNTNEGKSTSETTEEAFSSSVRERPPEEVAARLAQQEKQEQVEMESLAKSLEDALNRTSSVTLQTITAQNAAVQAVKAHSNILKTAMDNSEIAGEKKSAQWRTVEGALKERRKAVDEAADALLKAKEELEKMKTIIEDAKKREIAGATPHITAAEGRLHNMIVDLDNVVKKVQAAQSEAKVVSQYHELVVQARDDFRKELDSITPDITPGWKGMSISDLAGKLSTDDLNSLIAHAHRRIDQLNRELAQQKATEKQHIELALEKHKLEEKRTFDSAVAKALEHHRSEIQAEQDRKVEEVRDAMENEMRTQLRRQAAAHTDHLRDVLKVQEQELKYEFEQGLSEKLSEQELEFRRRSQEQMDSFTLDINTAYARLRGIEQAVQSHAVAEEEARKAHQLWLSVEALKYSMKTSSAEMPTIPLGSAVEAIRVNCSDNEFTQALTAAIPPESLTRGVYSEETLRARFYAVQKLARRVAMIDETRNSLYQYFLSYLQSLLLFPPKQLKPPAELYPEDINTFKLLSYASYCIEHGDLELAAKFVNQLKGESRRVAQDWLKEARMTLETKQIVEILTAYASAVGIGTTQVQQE
Sequence of ATP-sensitive inward rectifier potassium channel 11 (Mus musculus) (Q61743 whole entry): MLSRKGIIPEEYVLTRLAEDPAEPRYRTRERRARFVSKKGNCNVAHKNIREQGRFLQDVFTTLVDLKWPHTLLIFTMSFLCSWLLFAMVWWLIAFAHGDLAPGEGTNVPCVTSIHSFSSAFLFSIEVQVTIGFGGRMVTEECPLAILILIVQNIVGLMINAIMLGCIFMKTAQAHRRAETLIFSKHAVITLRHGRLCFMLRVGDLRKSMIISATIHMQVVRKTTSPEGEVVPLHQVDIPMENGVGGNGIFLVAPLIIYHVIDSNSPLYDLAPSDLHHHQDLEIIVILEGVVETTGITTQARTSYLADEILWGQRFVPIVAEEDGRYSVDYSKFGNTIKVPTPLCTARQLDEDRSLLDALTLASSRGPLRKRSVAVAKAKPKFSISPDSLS
Sequence of NEDD8-conjugating enzyme Ubc12 (Mus musculus) (P61082 whole entry): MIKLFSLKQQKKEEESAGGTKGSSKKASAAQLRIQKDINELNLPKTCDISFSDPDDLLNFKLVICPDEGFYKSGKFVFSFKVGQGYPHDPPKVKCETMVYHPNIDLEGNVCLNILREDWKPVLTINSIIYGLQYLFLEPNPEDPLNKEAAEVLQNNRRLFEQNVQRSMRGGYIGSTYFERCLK
Sequence of Tubulin alpha-1B chain (Mus musculus) (P05213 whole entry): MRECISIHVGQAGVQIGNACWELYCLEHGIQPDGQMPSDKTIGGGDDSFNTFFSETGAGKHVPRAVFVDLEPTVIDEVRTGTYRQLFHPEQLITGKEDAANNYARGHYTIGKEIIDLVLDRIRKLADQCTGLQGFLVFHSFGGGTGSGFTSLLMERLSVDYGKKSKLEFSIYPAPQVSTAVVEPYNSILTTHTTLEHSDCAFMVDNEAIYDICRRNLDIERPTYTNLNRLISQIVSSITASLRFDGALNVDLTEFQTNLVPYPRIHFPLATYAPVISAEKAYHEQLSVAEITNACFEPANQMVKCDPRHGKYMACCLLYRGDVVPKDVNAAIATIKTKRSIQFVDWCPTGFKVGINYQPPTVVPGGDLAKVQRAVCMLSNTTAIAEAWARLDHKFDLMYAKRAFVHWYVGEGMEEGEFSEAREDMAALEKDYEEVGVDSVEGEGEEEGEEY
Sequence of Chloride channel protein 1 (Mus musculus) (Q64347 whole entry): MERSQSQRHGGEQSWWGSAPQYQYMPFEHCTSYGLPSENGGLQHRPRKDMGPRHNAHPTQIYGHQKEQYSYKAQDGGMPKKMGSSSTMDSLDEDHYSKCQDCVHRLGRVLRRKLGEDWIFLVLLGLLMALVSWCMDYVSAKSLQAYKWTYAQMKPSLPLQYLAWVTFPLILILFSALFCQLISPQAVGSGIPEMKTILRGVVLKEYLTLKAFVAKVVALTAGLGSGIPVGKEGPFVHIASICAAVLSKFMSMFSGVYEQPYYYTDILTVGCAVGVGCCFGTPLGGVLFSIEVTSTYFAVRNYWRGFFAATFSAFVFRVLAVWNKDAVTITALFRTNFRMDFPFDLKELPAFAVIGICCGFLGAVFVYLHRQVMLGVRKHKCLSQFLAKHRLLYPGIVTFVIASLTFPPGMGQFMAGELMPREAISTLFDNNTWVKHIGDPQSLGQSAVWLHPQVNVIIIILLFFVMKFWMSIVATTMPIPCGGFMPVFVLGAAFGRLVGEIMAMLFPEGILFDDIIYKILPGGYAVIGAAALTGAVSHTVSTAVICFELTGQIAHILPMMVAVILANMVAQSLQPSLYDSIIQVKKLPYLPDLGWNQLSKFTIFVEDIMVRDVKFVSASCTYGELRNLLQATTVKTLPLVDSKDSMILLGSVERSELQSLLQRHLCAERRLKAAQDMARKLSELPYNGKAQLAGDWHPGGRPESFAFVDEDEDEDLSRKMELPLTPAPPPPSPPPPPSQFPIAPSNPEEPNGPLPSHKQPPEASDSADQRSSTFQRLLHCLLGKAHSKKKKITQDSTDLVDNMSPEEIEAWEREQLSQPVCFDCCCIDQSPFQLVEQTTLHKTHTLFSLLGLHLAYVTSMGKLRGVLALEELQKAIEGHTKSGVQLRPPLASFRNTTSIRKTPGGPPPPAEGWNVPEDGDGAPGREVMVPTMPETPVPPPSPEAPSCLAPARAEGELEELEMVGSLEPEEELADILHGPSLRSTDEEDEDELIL

- AAV9-BVES-HA (IP-MS count) [1]: 2
- AAV9-BVES-HA (IP-MS count) [2]: 4
- AAV9-BVES-HA (IP-MS count) [3]: 4
- AAV9-BVES-HA (IP-MS count) [4]: 36
- AAV9-BVES-HA (IP-MS count) [5]: 6
- AAV9-BVES-HA (IP-MS count) [6]: 2
- AAV9-BVES-HA (IP-MS count) [7]: 13
- AAV9-BVES-HA (IP-MS count) [8]: 2
- AAV9-BVES-HA (IP-MS count) [9]: 2
- AAV9-BVES-HA (IP-MS count) [10]: 2
- AAV9-BVES-HA (IP-MS count) [11]: 4
- AAV9-BVES-HA (IP-MS count) [12]: 6
- AAV9-BVES-HA (IP-MS count) [13]: 3
- AAV9-BVES-HA (IP-MS count) [14]: 3
- AAV9-BVES-HA (IP-MS count) [15]: 2
- AAV9-BVES-HA (IP-MS count) [16]: 2
- AAV9-BVES-HA (IP-MS count) [17]: 5
- AAV9-BVES-HA (IP-MS count) [18]: 4
- AAV9-BVES-HA (IP-MS count) [19]: 2
- AAV9-BVES-HA (IP-MS count) [20]: 2
- AAV9-BVES-HA (IP-MS count) [21]: 2
- AAV9-BVES-HA (IP-MS count) [22]: 2
- AAV9-BVES-HA (IP-MS count) [23]: 2
- AAV9-BVES-HA (IP-MS count) [24]: 2
- AAV9-BVES-HA (IP-MS count) [25]: 34
- AAV9-BVES-HA (IP-MS count) [26]: 2
- AAV9-BVES-HA (IP-MS count) [27]: 12
- AAV9-BVES-HA (IP-MS count) [28]: 14
- AAV9-BVES-HA (IP-MS count) [29]: 19
- AAV9-BVES-HA (IP-MS count) [30]: 5
- AAV9-BVES-HA (IP-MS count) [31]: 3
- AAV9-BVES-HA (IP-MS count) [32]: 2
- AAV9-BVES-HA (IP-MS count) [33]: 13
- AAV9-BVES-HA (IP-MS count) [34]: 2
- AAV9-BVES-HA (IP-MS count) [35]: 2
- AAV9-BVES-HA (IP-MS count) [36]: 24
- AAV9-BVES-HA (IP-MS count) [37]: 15
- AAV9-BVES-HA (IP-MS count) [38]: 18
- AAV9-BVES-HA (IP-MS count) [39]: 13
Substance: human BVES fused with 3xHA tag (from UniProt Q8NE79 1-360)
